Like-named read-outs stand apart in the source and are kept apart here.
Design: species or system rats
Settings: rat, in vivo, 1 mg/kg

interferon
Mean peak serum interferon concentration: 79±100 | Mean peak serum interferon concentration (po): 1951±1857

Reference: patent US5776888A, “Compounds and compositions for delivering active agents” (Emisphere Technologies, Inc., priority 1997, dated 1998)
